Patent publication US20150191542A1 (INNATE PHARMA S A, published 2015)

What was measured:
[1] = target: T1, MICA*004 expressed on C1R transfectant cells (human, UniProt Q29983 24-297, Glycosylated on cells; the letters do not carry this.); test: flow cytometry, MFI against antibody concentration on C1R-MICA*04 cells
T1 construct: also called C1R-MICA*004; C1R-MICA*04
T1 chain: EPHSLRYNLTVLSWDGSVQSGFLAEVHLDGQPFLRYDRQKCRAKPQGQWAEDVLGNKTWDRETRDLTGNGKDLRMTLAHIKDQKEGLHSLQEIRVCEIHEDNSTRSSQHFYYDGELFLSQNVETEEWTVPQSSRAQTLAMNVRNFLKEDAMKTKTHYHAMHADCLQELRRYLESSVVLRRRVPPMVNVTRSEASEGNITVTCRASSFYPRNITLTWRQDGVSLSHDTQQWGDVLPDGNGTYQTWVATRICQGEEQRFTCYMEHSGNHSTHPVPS
Procedure: (§1) The binding of antibodies obtained from the first and second immunization series (including 9C10, 20C6 and 16A8) were tested for binding to MICA-expressing CR1 transfectant cells C1R-MICA*001, C1R-MICA*004, C1R-MICA*007 and C1R-MICA*008 (Pr. A. Steinle, Eberhard-Karls University Tuebingen, Germany) described in Salih et al. (2003) Blood 102(4): […]. Binding was analyzed by flow cytometry.
(§2) Cells were harvested and stained in PBS 1×/BSA 0,2%/EDTA 2 mM buffer during 30 minutes at 4° C. using a dose-range of the anti-MICA mAbs. After two washes in staining buffer, cells were stained for 30 min at 4° C. with goat anti-mouse (H+L)-PE polyclonal antibodies (1/200). After two washes, stainings were acquired on a BD FACS Canto II and analyzed using the FlowJo software.

[2] = target: T2, MICA*008 expressed on C1R transfectant cells (human, UniProt Q29983 24-297, Glycosylated on cells; the letters do not carry this.); test: flow cytometry, MFI against antibody concentration on C1R-MICA*08 cells
T2 construct: also called C1R-MICA*008; C1R-MICA*08
T2 chain: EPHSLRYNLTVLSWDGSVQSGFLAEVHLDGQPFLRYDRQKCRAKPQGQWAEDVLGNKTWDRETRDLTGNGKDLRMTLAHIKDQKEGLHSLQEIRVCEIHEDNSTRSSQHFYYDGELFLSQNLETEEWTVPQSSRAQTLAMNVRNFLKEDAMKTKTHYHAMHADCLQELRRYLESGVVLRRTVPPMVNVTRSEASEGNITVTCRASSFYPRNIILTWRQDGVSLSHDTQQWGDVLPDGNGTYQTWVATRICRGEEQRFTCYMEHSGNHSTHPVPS
Procedure: as §1, §2

[3] = target: T3, MICA*001 extracellular domain α3 recombinant protein (human, UniProt Q29983 205-297); test: ELISA, 3 µg/ml recombinant protein coated
T3 construct: also called MICA extracellular domain α3 recombinant protein; α3 domain of MICA
T3 sequence: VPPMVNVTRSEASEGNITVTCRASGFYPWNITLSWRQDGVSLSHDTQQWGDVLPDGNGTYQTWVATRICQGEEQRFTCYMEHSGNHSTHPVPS
Procedure: 3 μg/ml of the indicated MICA recombinant proteins were coated overnight in 96-well plates in PBS 1× at 4° C. All subsequent steps were performed at room temperature. After washes with PBS 1×/Tween 0.05%, plates were saturated for an additional 2 hours in PBS 1×/BSA 1%. Two additional washes were performed prior adding the tested anti-MICA mAb in PBS 1×/BSA 1% for 2 hours. Antibodies were washed and a horseradish peroxidase conjugated goat polyclonal anti-mouse IgG (GAM-HRP) in PBS 1×/BSA 1% was added for 1 hour. Final washing steps were performed and TMB substrate was added to reveal the ELISA (5 to 20 min in the dark) and 1M HCl was added to stop the enzymatic reaction. O.D. was measured at 450 nm.
9C10 binds to MICA extracellular domain recombinant-protein but not MICA extracellular domain α3 recombinant protein. Antibody 16A8, however, bound to both MICA extracellular domain recombinant protein […] MICA extracellular domain α3 recombinant protein. Therefore, it can be concluded from this ELISA experiment that the binding site on MICA of 9C10 antibodies includes the α1 and/or α2 domains while antibody 16A8 binds to MICA within the α3 domain. […] BAMO1 is a commercially available anti-MICA specific for α1α2 domain and BAMO3 is a commercially available anti-MICA specific for α3 domain.

[4] = target: T4, recombinant human MICA extracellular domain recombinant-Fc protein (MICA*019 allele) (human, UniProt Q29983 24-297); test: SPR Biacore T100, biotinylated antibody captured on CAP chip, MICA*019-Fc injected; bivalent mean KD at pH 7.4; on MICA*019-Fc; bivalent, pH 7.4
T4 construct: Bought from R&D Systems; also called MICA*019-Fc; MICA-Fc; not shown: Fc part of the bought fusion protein (R&D Systems)
T4 chain: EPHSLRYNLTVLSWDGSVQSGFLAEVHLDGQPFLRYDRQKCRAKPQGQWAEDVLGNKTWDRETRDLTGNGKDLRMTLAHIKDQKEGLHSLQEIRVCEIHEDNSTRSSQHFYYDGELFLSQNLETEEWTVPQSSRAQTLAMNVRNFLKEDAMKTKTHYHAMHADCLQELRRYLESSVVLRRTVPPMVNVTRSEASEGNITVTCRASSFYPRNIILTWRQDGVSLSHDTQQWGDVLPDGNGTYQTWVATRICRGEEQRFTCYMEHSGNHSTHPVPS
Procedure: The binding of 9C10, 20C6 and 16A8 to either recombinant human MICA extracellular domain recombinant protein monomers or dimers (MICA*019 allele-Fc protein or MICA*001-His protein) as well as other NKG2D ligands MICB and ULBP1-2 was analyzed by Surface Plasmon Resonance (SPR) using a Biacore T100 apparatus to obtain monovalent and bivalent affinity, respectively. Biotinylated anti-MICA antibodies were injected at a constant rate of 10 μl/min over the Sensor Chip CAP flow-cells comprising Biotin CAPture Reagent. MICA-Fc or MICA-His protein, MICB-Fc, ULBP1-Fc or ULBP2-Fc protein is then injected successively (range of concentrations between 0.01-100 nM), with regeneration between injections, and in increasing order over two flowcells simultaneously. Curves are fitted using Biacore T100 Evaluation software.
Antibody 16A8 bound MICA and MICB but not ULBP1 or ULBP2. Results are shown in FIGS. 1A, 1B, 1C and 1D for MICA, MICB, ULBP1 and ULPB2 respectively.

B1: antibody 9C10 (antibody, V domains shown)
VH: QVQLQQPGAELVRPGTSVNLSCKASGYSFTRYWMNWVKQRPGQGLEWIGMIHPSDSETRLNQKFKDKATLTVDKSSSTAYMQLSSPTSEDSAVYYCGYGNFFYVMDYWGQGTSVTVSS
VL: DILLTQSPAILSVSPGERVSFSCRASQSIGTSIHWYQQRTNGSPRLLIKFASESISGIPSRFSGSGSGTDFTLNINSVESEDIADYYCQQSNFWPFTFGSGTKLEVK
modifications: Biotinylated when captured in the SPR assays (9C10-Biot); the sites are not given.
notes: Murine hybridoma antibody of IgG2b isotype as tested; also called 9C10-Biot
B1 was tested, and the “EC50 (read off the curve)” value [1] was about 0.2 mg/L, the “EC50 (read off the curve)” value [2] was about 0.2 mg/L and the binding result [3] was “no binding”. The Kd [4] was 0.62 pM.
